This is an account of results in patent US20210085784A1 (PROGASTRINE ET CANCERS S R L, published 2021).

B1: mAb4 (antibody, V domains shown)
VH: QVQLQQSGAELMKPGASVKISCKATGYTFSSSWIEWLKQRPGHGLEWIGEFLPGSGSTDYNEKFKGKATFTADTSSDTAYMLLSSLTSEDSAVYYCATDGNYDWFAYWGQGTLVTVSA
VL: DLVMTQTPLSLPVSLGDQASISCRSSQSLVHSSGVTYLHWYLQKPGQSPKLLIYKVSNRFSGVPDRFSGSGSGTDFTLKISRVEAEDLGVYFCSQSTHVPPTFGSGTKLEIK
notes: Murine monoclonal antibody from a hybridoma, raised against hPG 1-14; also called 20D2C3G2
B2: mAb16 (antibody, V domains shown)
VH: QVQLQQSGAELVKPGASVKLSCKASGYTFTSYYMYWVKQRPGQGLEWIGEINPSNGGTNFNEKFKSKATLTVDKSSSTAYMQLSSLTSEDSAVYYCTRGGYYPFDYWGQGTTLTVSS
VL: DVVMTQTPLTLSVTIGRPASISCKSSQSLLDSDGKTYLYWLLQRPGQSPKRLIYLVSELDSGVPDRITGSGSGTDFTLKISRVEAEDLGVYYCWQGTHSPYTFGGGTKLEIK
notes: Murine monoclonal antibody from a hybridoma, raised against hPG 1-14; also called 1E9D9B6
B3: mAb13 (antibody, V domains shown)
VH: EVQLVESGGGLVQPGGSLKLSCAASGFIFSSYGMSWVRQSPDRRLELVASINTFGDRTYYPDSVKGRFTISRDNAKNTLYLQMTSLKSEDTAIYYCARGTGTYWGQGTTLTVSS
VL: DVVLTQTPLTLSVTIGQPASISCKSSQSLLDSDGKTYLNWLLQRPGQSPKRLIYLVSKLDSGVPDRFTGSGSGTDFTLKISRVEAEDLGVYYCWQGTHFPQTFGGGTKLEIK
notes: Murine monoclonal antibody from a hybridoma, raised against hPG 55-80; also called 2C6C3C7
B4: mAb3 (antibody, V domains shown)
VH: EVQLQQSGTVLARPGASVKMSCKASGYIFTSYWVHWVKQRPGQGLEWIGGFYPGNSDSRYNQKFKGKATLTAVTSASTAYMDLSSLTNEDSAVYFCTRRDSPQYWGQGTTLTVSS
VL: DVLMTQTPLSLPVSLGDQASISCRSSQSIVHSNGNTYLEWYLQKPGQSPKLLIYKVSNRFSGVPDRFSGSGSGTDFTLKISRLEAEDLGVYYCFQGSHVPFTFGGGTKLEIK
notes: Murine monoclonal antibody from a hybridoma, raised against hPG 1-14; also called 6B5B11C10
B5: mAb19 (antibody, V domains shown)
VH: DVQLQESGPGLVKPSQSLSLTCTVTGYSITSDYAWNWIRQFPGNKLEWMGYISFSGYTSYNPSLKSRISVTRDTSRNQFFLQLTSVTTEDTATYYCAREVNYGDSYHFDYWGQGTIVTVSS
VL: QLALTQSSSASFSLGASAKLTCTLSSQHRTYTIEWYQQQSLKPPKYVMEVKKDGSHSTGHGIPDRFSGSSSGADRYLSISNIQPEDEAIYICGVGDAIKGQSVFVFGGGTKVTVL
notes: Murine monoclonal antibody from a hybridoma, raised against hPG 1-14; also called 1B3B4F11

The assay addresses T1, human progastrin (human, UniProt P01350 22-101).
T1 construct: also called hPG; PG
T1 sequence: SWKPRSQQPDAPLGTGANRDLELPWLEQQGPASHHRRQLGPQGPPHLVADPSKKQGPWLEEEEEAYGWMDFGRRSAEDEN
Briefly: epitope mapping, method not described.
For the molecule B1, the binding result is recorded as “binds”.
As for B2, the binding result is listed as “binds”.
Consider B3, for which the binding result is recorded as “binds”.
On to B4, for which the binding result is reported as “binds”.
Regarding B5, the binding result was “binds”.
